According to publication PMC13228514 (2026):
Values belong to the binder of their own block, whether it stands above or below them.

Tests used:
Assay in all cases: BLI; intact antibody
8D1 = target: 8D1
39G7 = target: 39G7
anti-LHFPL5 = target: anti-LHFPL5

Sequence of 8D1 (Q99PJ1 27-1462): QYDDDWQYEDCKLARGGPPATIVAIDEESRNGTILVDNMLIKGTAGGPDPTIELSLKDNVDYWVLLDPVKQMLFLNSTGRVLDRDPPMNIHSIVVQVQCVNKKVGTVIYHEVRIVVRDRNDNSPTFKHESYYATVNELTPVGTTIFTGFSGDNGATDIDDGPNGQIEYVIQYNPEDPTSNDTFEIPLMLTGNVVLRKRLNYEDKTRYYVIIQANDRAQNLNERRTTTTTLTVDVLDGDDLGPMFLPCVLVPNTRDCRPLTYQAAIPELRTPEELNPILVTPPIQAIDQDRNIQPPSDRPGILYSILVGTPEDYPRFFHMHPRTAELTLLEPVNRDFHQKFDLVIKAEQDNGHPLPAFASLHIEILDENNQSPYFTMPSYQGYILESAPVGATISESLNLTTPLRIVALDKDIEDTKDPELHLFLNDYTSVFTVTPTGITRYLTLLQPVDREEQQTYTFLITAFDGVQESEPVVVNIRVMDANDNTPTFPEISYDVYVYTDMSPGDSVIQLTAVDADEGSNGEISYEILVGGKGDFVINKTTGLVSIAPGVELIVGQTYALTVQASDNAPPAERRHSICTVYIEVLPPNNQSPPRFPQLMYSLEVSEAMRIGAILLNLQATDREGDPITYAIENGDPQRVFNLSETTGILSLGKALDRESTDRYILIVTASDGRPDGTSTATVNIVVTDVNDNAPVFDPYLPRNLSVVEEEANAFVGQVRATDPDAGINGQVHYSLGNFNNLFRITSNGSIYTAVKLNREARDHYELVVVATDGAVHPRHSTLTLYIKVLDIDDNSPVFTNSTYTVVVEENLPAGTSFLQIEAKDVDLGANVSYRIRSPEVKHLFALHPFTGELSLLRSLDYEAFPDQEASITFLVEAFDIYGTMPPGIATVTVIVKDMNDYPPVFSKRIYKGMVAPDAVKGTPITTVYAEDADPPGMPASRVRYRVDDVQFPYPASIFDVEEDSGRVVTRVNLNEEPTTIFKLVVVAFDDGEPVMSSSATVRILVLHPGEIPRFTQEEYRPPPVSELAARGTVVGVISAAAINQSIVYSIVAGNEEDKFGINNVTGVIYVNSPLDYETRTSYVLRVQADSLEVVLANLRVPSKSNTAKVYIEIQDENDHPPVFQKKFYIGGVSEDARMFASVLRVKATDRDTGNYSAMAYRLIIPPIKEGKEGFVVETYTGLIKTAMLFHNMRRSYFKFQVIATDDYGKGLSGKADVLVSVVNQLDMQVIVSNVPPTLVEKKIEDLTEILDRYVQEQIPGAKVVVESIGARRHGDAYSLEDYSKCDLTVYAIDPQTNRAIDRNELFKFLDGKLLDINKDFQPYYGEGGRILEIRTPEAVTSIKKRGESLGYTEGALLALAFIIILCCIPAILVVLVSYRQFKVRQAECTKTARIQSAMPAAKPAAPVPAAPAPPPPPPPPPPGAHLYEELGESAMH
Sequence of 39G7 (Q99PJ1 27-1462): as above

Kd (8D1): 0.05 nM
koff (8D1): 3e-05 s⁻¹
Kd (39G7): 0.2 nM
koff (39G7): 2e-05 s⁻¹
B1: recombinant protocadherin-15 (PCDH15), residues 1-1462 (EC1-EC11 and part of the cytoplasmic region) (domain or fragment)
chain: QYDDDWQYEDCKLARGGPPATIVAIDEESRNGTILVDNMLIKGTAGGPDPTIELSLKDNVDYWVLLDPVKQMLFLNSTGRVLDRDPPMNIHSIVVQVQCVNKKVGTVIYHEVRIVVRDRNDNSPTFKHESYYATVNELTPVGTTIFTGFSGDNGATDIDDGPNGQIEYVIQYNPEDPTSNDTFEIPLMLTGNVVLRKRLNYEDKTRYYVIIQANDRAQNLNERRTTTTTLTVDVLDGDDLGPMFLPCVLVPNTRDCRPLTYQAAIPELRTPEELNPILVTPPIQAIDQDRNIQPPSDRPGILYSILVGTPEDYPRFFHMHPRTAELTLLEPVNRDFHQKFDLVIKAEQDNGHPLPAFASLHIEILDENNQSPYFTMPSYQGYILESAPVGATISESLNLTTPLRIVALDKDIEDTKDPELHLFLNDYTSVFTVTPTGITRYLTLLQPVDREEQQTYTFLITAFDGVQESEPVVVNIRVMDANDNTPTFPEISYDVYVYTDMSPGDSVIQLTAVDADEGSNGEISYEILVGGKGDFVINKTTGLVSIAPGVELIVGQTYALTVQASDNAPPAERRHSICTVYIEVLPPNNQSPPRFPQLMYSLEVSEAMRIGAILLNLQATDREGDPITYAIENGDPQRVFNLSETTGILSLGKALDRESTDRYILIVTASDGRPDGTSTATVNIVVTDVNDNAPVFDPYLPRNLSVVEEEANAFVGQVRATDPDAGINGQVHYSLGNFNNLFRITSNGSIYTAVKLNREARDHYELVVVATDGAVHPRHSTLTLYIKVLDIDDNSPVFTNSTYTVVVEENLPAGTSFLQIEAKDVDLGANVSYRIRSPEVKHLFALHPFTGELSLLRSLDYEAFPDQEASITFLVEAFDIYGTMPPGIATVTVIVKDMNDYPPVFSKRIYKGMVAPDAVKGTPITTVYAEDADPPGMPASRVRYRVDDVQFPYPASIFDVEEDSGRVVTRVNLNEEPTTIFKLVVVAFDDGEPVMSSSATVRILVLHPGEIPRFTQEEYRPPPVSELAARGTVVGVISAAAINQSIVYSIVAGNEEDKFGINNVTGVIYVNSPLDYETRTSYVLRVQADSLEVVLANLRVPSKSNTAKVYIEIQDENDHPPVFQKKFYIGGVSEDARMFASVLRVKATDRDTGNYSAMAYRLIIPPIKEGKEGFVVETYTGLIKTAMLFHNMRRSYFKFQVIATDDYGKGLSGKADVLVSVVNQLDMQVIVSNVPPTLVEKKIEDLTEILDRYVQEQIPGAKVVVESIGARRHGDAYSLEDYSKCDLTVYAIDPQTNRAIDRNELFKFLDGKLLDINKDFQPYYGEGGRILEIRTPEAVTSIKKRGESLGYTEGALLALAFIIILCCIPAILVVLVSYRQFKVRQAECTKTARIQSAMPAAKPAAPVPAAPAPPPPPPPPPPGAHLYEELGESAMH

Kd (anti-LHFPL5): 1 nM
koff (anti-LHFPL5): 5e-05 s⁻¹
B2: recombinant lipoma HMGIC fusion partner-like protein 5 (LHFPL5), residues 2-219 (natural protein)
chain: VKLLPAQEAAKIYHTNYVRNSRAVGVMWGTLTICFSVLVMALFIQPYWIGDSVSTPQAGYFGLFSYCVGNVLSSELICKGGPLDFSSIPSRAFKTAMFFVALAMFLIIGSIICFSLFFVCNTATVYKICAWMQLAAATGLMIGCLVYPDGWDSSEVRRMCGEQTGKYTLGHCTIRWAFMLAILSIGDALILSFLAFVLGYRQDKLLPDDYKADGNEEV
